Results as given in patent US20170319648A1.
Positions of bridges follow the written chain, without caps; N, C: chain ends. Non-standard residues stand in square brackets, D forms with d. No end group written: not given here. hCys = N[C@@H](CCS)C(=O)O; Orn = NCCC[C@H](N)C(=O)O; Dab = NCC[C@H](N)C(=O)O

Biological target: TEAD
Test: IC50 for TEAD binding; method not named in the example (TR-FRET test is the filing's screening method)

TEAD, sequence (P28347 209-426): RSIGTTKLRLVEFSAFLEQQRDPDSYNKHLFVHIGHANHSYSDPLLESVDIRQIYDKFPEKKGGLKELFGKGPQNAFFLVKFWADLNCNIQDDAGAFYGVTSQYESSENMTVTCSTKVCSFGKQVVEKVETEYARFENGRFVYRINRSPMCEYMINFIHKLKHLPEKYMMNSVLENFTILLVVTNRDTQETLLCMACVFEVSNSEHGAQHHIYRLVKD

VPF[hCys]LR[Orn]LPDSFCKPPE (disulfide 4-13) [polypeptide of SEQ ID NO.: 5 (VPF(Hcy)LR(Orn)…)] was tested. Which IC50 did it give?
The IC50 was 43 nM.

Which IC50 does the source give for VPF[hCys]LR[Dab]LPDSFCKPPE (disulfide 4-13) [polypeptide of SEQ ID NO.: 6 (VPF(Hcy)LR(Dab)…)] here?
Its IC50 is 28 nM.
